# According to patent publication US20210379068A1, “METHODS AND MATERIALS FOR TREATING NEUROPSYCHIATRIC DISORDERS” (Mayo Foundation for Medical Education and Research, priority 2018, published 2021):
# B1: Cxcl1: Recombinant CXCL1 (Peprotech, #250-11) injected i.p. into lean mice (protein, UniProt P12850 25-96, looked up)
# Growth-regulated alpha protein: APIANELRCQCLQTMAGIHLKNIQSLKVLPSGPHCTQTEVIATLKNGREACLDPEAPLVQKIVQKMLKGVPK
# Experiments:
# Assay type in all cases: in vivo, mouse
# [1] = system: obese C57BL/6 mice; assay: Open field test, HFD mice treated with Reparixin; settings: HFD C57BL/6 mice; Reparixin 30 mg/kg s.c. twice per day for 2 weeks vs non-treated
# Protocol: (§1) Reparixin L-lysine salt (MedChemExpress, #HY-15252) or L-Lysine hydrochloride (MedChemExpress, #HY-N0470) was dissolved in H2O was administered to obese C57BL/6 mice (fed for 2 months with high-fat diet) via subcutaneous injection (30 mg/kg) twice per day for 2 weeks. 2 hours after the last injection mice were tested in open field and elevated plus maze and afterwards dissected. Locomotor activity and anxiety-like behavior of mice were assessed in sound-insulated, rectangular activity chambers (Med Associates Inc., St Albans, Vt., USA: W×L×D=27 cm×27 cm×20 cm with continually running fans, infrared lasers, and sensors). Beam breaks were assessed in 2-minute bins over 30 minutes, converted automatically to current mouse location and distance travelled (cm), and recorded on a computer with Med-PC software Version 4.0. Before the test, mice were acclimatized to the room for 1-1.5 hours before being introduced into the chambers. Mice were habituated for 5 minutes in the Open Field chamber (without recording) then placed for another 5 minutes in the home cage. Afterwards, mice were introduced back to the chambers and all mouse movements were recorded for 30 minutes. Anxiety was quantified by the distance mice travelled in the central 25% of the chamber (zone 1) as a function of the total distance mice travelled and by frequencies of entries into zone 1.
# [2] = system: obese C57BL/6 mice; assay: Elevated plus maze, HFD mice treated with Reparixin; settings: HFD C57BL/6 mice; Reparixin 30 mg/kg s.c. twice per day for 2 weeks vs non-treated
# Protocol: (§2) Reparixin L-lysine salt (MedChemExpress, #HY-15252) or L-Lysine hydrochloride (MedChemExpress, #HY-N0470) was dissolved in H2O was administered to obese C57BL/6 mice (fed for 2 months with high-fat diet) via subcutaneous injection (30 mg/kg) twice per day for 2 weeks. 2 hours after the last injection mice were tested in open field and elevated plus maze and afterwards dissected. A grey colored elevated plus maze apparatus was used. Two open arms (25×5 cm) and two closed arms (25×5 cm) were attached at right angles to a central platform (5×5 cm). The apparatus was set 40 cm above the floor. Mice were first acclimatized to the room for 1-1.5 hours. Mice were then placed individually on the central platform with their back to one of the open arms. Before the test, mice were habituated for 1 minute to the maze, then placed back in the home cage for 5 minutes. Mice were tested for 5 minutes during which they could freely explore the apparatus. Tracking software (Ethovision) recognizes mouse head, central body point, and the base of the tail. Anxiety was quantified by frequency of and time spent during head pokes/dips toward open arms. Higher anxiety is indicated by a lower frequency of movement into open arms and less time spent there.
# [3] = Circulating Cxcl1 after Cxcl1 injection in lean C57BL/6 mice; settings: Cxcl1 5 μg/kg i.p. daily for 7 days vs vehicle
# Protocol: (§3) Recombinant CXCL1 (Peprotech, #250-11) or vehicle (PBS) was administered to lean C57BL/6 via i.p. injection (5 μg/kg in PBS) daily for 7 days. 2 hours after the last injection mice were tested in open field and elevated plus maze and afterwards dissected.
# Serum levels of cytokines: Eotaxin, G-Csf, Tnf-α, Il-6, Ifn-γ, Il-1α, Il-1β, Il-17, Il-2, Kc/Cxcl1, Mcp-1, M-Csf, Mig, Mip-1α, and Mip-1β were determined using a Multiplexing LASER Bead Assay (Mouse Cytokine Array/Chemokine Array 31-Plex (MD31), Eve Technologies; Canada). Blood was withdrawn from mice by punctuation of the sub-mandibular vein at the day of dissection before an animal was sacrificed. 50 μL of serum were shipped to Eve Technologies on dry ice. Due to high variability of data an unbiased elimination of outliers was performed using ROUT's method (Graphpad 7 Prism). The same panel was used to detect SASP in MAF and 50 μl of media was shipped to Eve Technologies on dry ice.
# [4] = system: lean C57BL/6; assay: Open field test after Cxcl1 injection; settings: Cxcl1 5 μg/kg i.p. daily for 7 days vs vehicle
# Protocol: as §3
# as §1, with “Locomotor” for “Reparixin L-lysine salt (MedChemExpress, #HY-15252) or L-Lysine hydrochloride (MedChemExpress, #HY-N0470) was dissolved in H2O was administered to obese C57BL/6 mice (fed for 2 months with high-fat diet) via subcutaneous injection (30 mg/kg) twice per day for 2 weeks. 2 hours after the last injection mice were tested in open field and elevated plus maze and afterwards dissected. Locomotor”
# [5] = system: lean C57BL/6; assay: Elevated plus maze after Cxcl1 injection; settings: Cxcl1 5 μg/kg i.p. daily for 7 days vs vehicle
# Protocol: as §3
# as §2, with “A” for “Reparixin L-lysine salt (MedChemExpress, #HY-15252) or L-Lysine hydrochloride (MedChemExpress, #HY-N0470) was dissolved in H2O was administered to obese C57BL/6 mice (fed for 2 months with high-fat diet) via subcutaneous injection (30 mg/kg) twice per day for 2 weeks. 2 hours after the last injection mice were tested in open field and elevated plus maze and afterwards dissected. A”
molecule,measurement,setting,value
CC(C)Cc1ccc([C@@H](C)C(=O)NS(C)(=O)=O)cc1 [Reparixin],behavior in the open field box,[1],no difference
same,behavior in the EPM,[2],no difference
B1,circulating Cxcl1 in blood plasma,[3],increased levels
same,circulating Cxcl1 in blood plasma,[3]; listed as Cxcl-1,significantly increased
same,"anxiety-like behavior, open field (distance in the central area)",[4],no difference
same,"anxiety-like behavior, open field (distance in the central area)",[4]; listed as Cxcl-1,not different
same,"anxiety-like behavior, EPM (head entries in the open arms)",[5],no difference
same,"anxiety-like behavior, EPM (head entries in the open arms)",[5]; listed as Cxcl-1,not different
